Where two headings read alike, the source gives them in different places.
Columns and labels:
[1] = molecular target: T1, human wild-type RON (cell surface) (human, UniProt Q04912 25-1400); experiment: FACS titration on PC3 cells, 4 C
T1 construct: whole, on cells; also called Human RON; wt RON
Protocol: (§1) Binding to cell surface human wild-type RON and the delta 160 RON variant by antibodies 29B06 and 07F01 was measured at 4° C., using Fluorescence Activated Cell Sorting (FACS). PC3 cells expressing the human wild-type RON, and HT29 cells expressing the delta 160 variant, were harvested using cell dissociation buffer (Invitrogen), washed twice with FACS buffer (PBS with 0.5% BSA), and treated for 10 minutes with Cyto Q Antibody diluent and FC receptor block (Innovex Biosciences, Richmond, Calif.). Purified antibodies were diluted in FACS buffer over a concentration range from 0.02 nM to 40 nM. Cells were incubated with 100 μl of antibody for one hour, washed with FACS buffer three times, and incubated for 45 minutes with goat anti-mouse PE-conjugated antibody (Jackson ImmunoResearch Laboratories, West Grove, Pa.). Cells were washed three times with FACS buffer, resuspended in 300 μl of FACS buffer, and analyzed using a Beckman Coulter Cytomics FC 500 FACS instrument.

[2] = molecular target: T1, human wild-type RON (cell surface); experiment: FACS titration on PC3 cells, 4 C; remark: listed apart in the source
Protocol: (§2) Binding to cell surface human wild-type RON and the delta 160 RON variant by antibodies 07F01, Sh07F01-62, 29B06, and Sh29B06-78 was measured at 4° C., using Fluorescence Activated Cell Sorting (FACS). PC3 cells expressing the human wild-type RON, and HT29 cells expressing the delta 160 variant, were harvested using cell dissociation buffer (Invitrogen), washed twice with FACS buffer (PBS with 0.5% BSA), and treated 10 minutes with Cyto Q Antibody diluent and FC receptor block (Innovex Biosciences, Richmond, Calif.). Purified antibodies were diluted in FACS buffer over a concentration range from 0.01 nM to 25 nM. Cells were incubated with 100 μl of antibody for one hour, washed with FACS buffer three times, and incubated for 45 minutes with goat anti-mouse PE-conjugated antibody (Jackson ImmunoResearch Laboratories, West Grove, Pa.) or donkey anti-human PE-conjugated antibody (Jackson ImmunoResearch Laboratories, West Grove, Pa.). Cells were washed three times with FACS buffer, resuspended in 300 μl of FACS buffer, and analyzed using a Beckman Coulter Cytomics FC 500 FACS instrument. All four antibodies were compared in the same experiment.

[3] = molecular target: T2, delta 160 RON variant (cell surface) (human, UniProt Q04912 25-1400); experiment: FACS titration on HT29 cells, 4 C
T2 construct: whole, on cells; Splice variant; also called delta 160 variant
Protocol: as §1

[4] = molecular target: T2, delta 160 RON variant (cell surface); experiment: FACS titration on HT29 cells, 4 C; remark: listed apart in the source
Protocol: as §2

[5] = molecular target: T2, delta 160 RON variant (cell surface); experiment: FACS, 10 ug/ml antibody, HT-29 cells, 4 C
Protocol: Binding to cell surface wild-type RON and delta 160 RON at 4° C. was determined for antibodies 07F01, 12B11, 17F06, 18H09, and 29B06, using FACS. Cells expressing wild-type RON (PC3), and cells expressing delta 160 RON (HT-29), were harvested using cell dissociation buffer (Invitrogen), washed twice with FACS buffer (0.5% BSA PBS) and treated with CytoQ Antibody diluent and FC receptor block (Innovex). Purified antibodies were diluted at a concentration of 10 μg/ml, in FACS buffer. Cells were incubated with 100 μl of antibody mix for one hour, washed with FACS buffer three times, and incubated for 45 minutes with goat anti-mouse PE conjugated antibody (Jackson Immunoresearch Laboratories). Cells were washed three times with FACS buffer, resuspended in 300 μl of FACS buffer and analyzed using a Beckman Coulter Cytomics FC 500 FACS instrument.

[6] = molecular target: T3, recombinant human RON-ECD/mFc fusion protein (human, UniProt Q04912 25-957); experiment: SPR, Ab captured on anti-mouse IgG, 25 C, AVG
T3 construct: extracellular domain; also called rhRON ECD/mFc; rhRon ECD/mFc; not shown: THXmFC: Thrombin/His tag/Factor Xa-AJ mouse IgG-Fc
Protocol: The binding affinities and kinetics of binding of antibodies 07F01, 29B06, 17F06, 18H09, and 12B11 to recombinant human RON-ECD/mFc fusion protein (rhRON ECD/mFc) and recombinant human RON SEMA and PSI domains (rhRON SEMA+PSI) (R&D Systems, Inc., Minneapolis, Minn.) were measured by surface plasmon resonance, using a Biacore T100 instrument (GE Healthcare, Piscataway, N.J.).
Rabbit anti-mouse IgGs (GE Healthcare) were immobilized on carboxymethylated dextran CM4 sensor chips (GE Healthcare) by amine coupling, according to a standard protocol. Analyses were performed at 25° C. and 37° C., using PBS containing 0.05% surfactant P20 as running buffer. The antibodies were captured in individual flow cells at a flow rate of 10 μl/min. Injection time was varied for each antibody to yield an Rmax between 30 and 60 RU. 250 μg/mL mouse Fc were injected at 30 μl/min for 120 seconds to block non-specific binding of antibodies to Fc portion of the protein when needed. Buffer, rhRon ECD/mFc or rhRON SEMA+PSI diluted in running buffer was injected sequentially over a reference surface (no antibody captured) and the active surface (antibody to be tested) for 300 seconds at 60 μl/minute. The dissociation phase was monitored for up to 3600 seconds. The surface was then regenerated with two 60-second injections of 10 mM Glycine-HCl, pH 1.7, at a flow rate of 60 μl/min. The rhRON ECD/mFc or rhRON SEMA+PSI concentration range tested was 0.625 nM to 20 nM.
Kinetic parameters were determined using the kinetic function of the BIAevaluation software (GE Healthcare) with double reference subtraction. Kinetic parameters for each antibody, kₐ (association rate constant), kd (dissociation rate constant) and KD (equilibrium dissociation constant) were determined.

B1: 07F01 (antibody, mouse IgG1, kappa, V domains shown)
VH: EVKLLESGGGLVQPGGSLKLSCAASGFDFSRHWMSWVRLAPGKGLEWIAEINPDSRTINYTPSLKEKFIISRDNAKNSLFLQMNRVRSEDTALYYCARRVRIHYYGAMDCWGQGTSVTVSS
VL: DIVLTQSQKIVSTSVGARVSVTCKASQNVGSSLVWYQQKPGQSPKTLIYSASFRYSGVPDRFTGSGSGTDFTLTISNVQSEDLADYFCQQYNNYPLTFGAGTKLELKR
notes: Murine hybridoma monoclonal, IgG1/kappa; also called mu07F01; antibody 07F01
Kd [1]: 32 pM
Kd [2]: 53 pM
Kd [3]: 24 pM
Kd [4]: 100 pM
HT-29 % cell surface binding [5]: 99.1%
Kd [6]: 230 pM
koff [6]: 9.3e-05 s⁻¹
kon [6]: 400000 M⁻¹ s⁻¹

B2: 29B06 (antibody, mouse IgG1, kappa)
heavy: EVQLQESGPSLVKPSQTLSLTCSVTGDSITSGYWNWIRKFPGNKLEYMGYISYSGKTYYNPSLKSRISITRDTSKNHYYLQLISVTAEDTATYYCARSKYDYAMDYWGQGTSVTVSSAKTTPPSVYPLAPGSAAQTNSMVTLGCLVKGYFPEPVTVTWNSGSLSSGVHTFPAVLQSDLYTLSSSVTVPSSTWPSETVTCNVAHPASSTKVDKKIVPRDCGCKPCICTVPEVSSVFIFPPKPKDVLTITLTPKVTCVVVDISKDDPEVQFSWFVDDVEVHTAQTQPREEQFNSTFRSVSELPIMHQDWLNGKEFKCRVNSAAFPAPIEKTISKTKGRPKAPQVYTIPPPKEQMAKDKVSLTCMITDFFPEDITVEWQWNGQPAENYKNTQPIMDTDGSYFVYSKLNVQKSNWEAGNTFTCSVLHEGLHNHHTEKSLSHSPGK
light: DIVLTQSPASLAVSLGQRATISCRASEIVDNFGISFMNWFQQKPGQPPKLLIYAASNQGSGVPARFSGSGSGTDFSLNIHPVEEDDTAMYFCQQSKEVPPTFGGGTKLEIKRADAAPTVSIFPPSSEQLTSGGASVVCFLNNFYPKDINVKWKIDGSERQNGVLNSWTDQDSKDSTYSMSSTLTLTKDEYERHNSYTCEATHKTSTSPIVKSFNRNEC
notes: Murine hybridoma monoclonal, IgG1/kappa; also called mu29B06; antibody 29B06
Kd [1]: 133 pM
Kd [2]: 136 pM
Kd [3]: 146 pM
Kd [4]: 167 pM
HT-29 % cell surface binding [5]: 99%
Kd [6]: 650 pM
koff [6]: 0.00013 s⁻¹
kon [6]: 200000 M⁻¹ s⁻¹

Reference: US20120027773A1 (AVEO PHARMACEUTICALS, published 2012)
